The target of assay [1] is T1, bovine serum albumin (BSA) (bovine, UniProt P02769 25-607).
T1 construct: Unconjugated carrier protein used as a screening control; also called carrier protein
Put plainly: indirect EIA, compounds coated on microtiter plates, clonal supernatant, goat anti-mouse IgG HRP detection. As to the method: (§1) An assay was developed to screen the Mabs for reactivity to the FTC conjugates. Microtiter plates were coated with the following reagents: FTC-peptide-dextran, FTC-peptide, FTC-peptide-LPH, FTC-peptide-BSA, FTC heptanoic acid, peptide only, peptide-LPH, peptide-BSA, BSA, LPH, and normal mouse serum (NMS). All compounds were diluted into sodium bicarbonate buffer, pH 9.6, to a concentration of 5 ug/ml; NMS was diluted 1:15. One hundred microliters of each solution was added to a column of the microtiter plate such that each row of the plate allowed the testing of a single clonal supernatant against all of the compounds in a single run. Plates were incubated at 4° C. overnight and then washed 3× with phosphate-buffered saline (PBS) containing 0.05% Tween 20 (PBS-T). Plates were blocked with PBS containing 0.5% nonfat dry milk for 1 hour at 37° C., washed 3×, and dried at 37° C. for 30 minutes. Prepared plates were covered with an adhesive seal, placed into a moisture resistant bag, and stored in a dessicant chamber at 20-24° C. until use.

Assay [2] has as its target T2, limulus polyphemus hemocyanin II (LPH) (Limulus polyphemus, UniProt P04253 1-628, limits assumed).
T2 construct: Unconjugated carrier protein used as a screening control; also called carrier protein
T2 sequence (looked up): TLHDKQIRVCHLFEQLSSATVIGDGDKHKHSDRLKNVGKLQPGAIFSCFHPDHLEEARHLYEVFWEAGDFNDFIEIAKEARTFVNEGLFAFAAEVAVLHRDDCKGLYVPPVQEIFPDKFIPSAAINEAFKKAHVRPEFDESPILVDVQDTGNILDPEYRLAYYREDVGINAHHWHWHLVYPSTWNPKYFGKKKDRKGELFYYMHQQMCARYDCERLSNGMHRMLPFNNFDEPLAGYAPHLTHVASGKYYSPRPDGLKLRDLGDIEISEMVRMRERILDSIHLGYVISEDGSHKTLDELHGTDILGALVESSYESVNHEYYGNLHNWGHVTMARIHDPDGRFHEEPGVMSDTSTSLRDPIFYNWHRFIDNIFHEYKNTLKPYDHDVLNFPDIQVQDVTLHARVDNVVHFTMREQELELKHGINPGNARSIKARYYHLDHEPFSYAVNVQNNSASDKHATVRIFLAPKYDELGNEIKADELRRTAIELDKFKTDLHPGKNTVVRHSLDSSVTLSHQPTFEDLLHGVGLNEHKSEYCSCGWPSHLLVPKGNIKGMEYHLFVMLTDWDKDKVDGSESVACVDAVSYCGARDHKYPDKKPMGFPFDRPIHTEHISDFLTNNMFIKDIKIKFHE
The assay is described as above. As to the method: as §1

T1 sequence (P02769 25-607 limits assumed): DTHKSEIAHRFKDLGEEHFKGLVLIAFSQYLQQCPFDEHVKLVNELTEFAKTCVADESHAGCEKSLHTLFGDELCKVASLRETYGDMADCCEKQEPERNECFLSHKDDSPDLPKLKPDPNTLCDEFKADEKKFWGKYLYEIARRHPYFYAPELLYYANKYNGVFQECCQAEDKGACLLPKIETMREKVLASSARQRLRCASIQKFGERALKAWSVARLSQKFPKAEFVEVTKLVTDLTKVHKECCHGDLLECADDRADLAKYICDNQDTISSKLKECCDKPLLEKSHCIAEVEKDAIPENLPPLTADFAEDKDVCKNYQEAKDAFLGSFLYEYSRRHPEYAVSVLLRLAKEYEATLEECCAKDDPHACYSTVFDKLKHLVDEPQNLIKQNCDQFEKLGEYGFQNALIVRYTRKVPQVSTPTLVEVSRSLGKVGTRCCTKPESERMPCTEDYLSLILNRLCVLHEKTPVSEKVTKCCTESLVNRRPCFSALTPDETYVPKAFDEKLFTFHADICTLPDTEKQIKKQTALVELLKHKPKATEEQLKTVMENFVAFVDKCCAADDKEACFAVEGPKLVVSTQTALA

B1: 5D2 monoclonal antibody (antibody, mouse IgG2b, kappa, V domains shown)
VH: QVQLQQPGAELVKPGASVKVSCKASGYTFTSYWMHWVKQRPGQGLEWIGRIHLSDSDTNYNQNFKDKATLTVDKSSRTAHMHLSSLTSADSAVYYCAMGGTFQSNYDTYWGQGTLVTVSA
VL: DIQMTQSPASLSASVGETVTITCRASGNIHNYLAWYQQKQGKSPQLLVYNAKTLTDGVPSRFSGSGSGTQYSLKINSLQPEDFGNYYCQHFLYTPYTFGGGTKLEMRR
notes: Mouse IgG2b, kappa, raised against the small molecule emtricitabine (FTC); In the lateral flow assay the antibody was conjugated to gold; also called Mab 5D2; FTC (5D2) monoclonal antibody
Consider B1, for which the binding result in assay [1] and in assay [2] was “no binding (tested: 5 ug/ml (coating concentration))” in each case.

These data come from patent US20210253738A1 (UNITED STATES OF AMERICA AS REPRESENTED BY THE SECRETARY …, published 2021).
